What was measured:
[1] = target: T1, human activated Protein C (human, UniProt P04070 43-461); experiment: Biacore, Fab
T1 construct: also called human aPC; hAPC

[2] = target: T1, human activated Protein C; experiment: direct ELISA, antigen coated, Fab
dog Protein C (zymogen) = target: T2, dog Protein C (zymogen) (dog, UniProt Q28278 43-456); experiment: direct ELISA, dPC coated at 10 ug/ml, Fab at 20 nM, anti-human Fab-HRP, AmplexRed (RFU)
T2 construct: mature; also called dog PC
T2 sequence (looked up): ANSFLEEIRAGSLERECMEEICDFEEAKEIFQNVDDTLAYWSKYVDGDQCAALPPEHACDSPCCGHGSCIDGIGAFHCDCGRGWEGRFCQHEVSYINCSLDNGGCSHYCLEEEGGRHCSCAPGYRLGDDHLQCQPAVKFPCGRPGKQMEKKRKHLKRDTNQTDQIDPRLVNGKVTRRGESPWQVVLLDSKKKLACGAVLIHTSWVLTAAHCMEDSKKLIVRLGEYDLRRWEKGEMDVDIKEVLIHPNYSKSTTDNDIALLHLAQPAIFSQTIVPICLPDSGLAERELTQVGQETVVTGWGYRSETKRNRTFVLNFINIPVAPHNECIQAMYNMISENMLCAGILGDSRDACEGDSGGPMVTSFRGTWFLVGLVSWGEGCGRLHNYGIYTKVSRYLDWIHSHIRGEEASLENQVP
Description: (§1) To determine the binding selectivity of these fabs, their binding activities to the proenzyme human PC, to thrombin (FIIa), and to the activated Factor II (FIIa, thrombin), Factor VII (FVIIa), Factor IX (FIXa), and Factor X (FXa) were also assessed by ELISA. Briefly, an ELISA plate was coated with human aPC at 1 ug/ml, mouse PC at 10 ug/ml, dog PC at 10 ug/ml, other coagulation factors (FIIa, FVIIa, FIXa, FXa) at 5-10 ug/ml. Anti-aPC Fabs were added to the wells at 20 nM (1 ug/ml). Bound Fabs were detected by the secondary antibody (anti-human Fab-HRP) followed by HRP substrate AmplexRed.

[3] = target: T3, mouse Protein C (zymogen) (mouse, UniProt P33587 42-460); experiment: direct ELISA, mPC coated at 10 ug/ml, Fab at 20 nM, anti-human Fab-HRP, AmplexRed (RFU)
T3 construct: mature; also called mouse PC
T3 sequence (looked up): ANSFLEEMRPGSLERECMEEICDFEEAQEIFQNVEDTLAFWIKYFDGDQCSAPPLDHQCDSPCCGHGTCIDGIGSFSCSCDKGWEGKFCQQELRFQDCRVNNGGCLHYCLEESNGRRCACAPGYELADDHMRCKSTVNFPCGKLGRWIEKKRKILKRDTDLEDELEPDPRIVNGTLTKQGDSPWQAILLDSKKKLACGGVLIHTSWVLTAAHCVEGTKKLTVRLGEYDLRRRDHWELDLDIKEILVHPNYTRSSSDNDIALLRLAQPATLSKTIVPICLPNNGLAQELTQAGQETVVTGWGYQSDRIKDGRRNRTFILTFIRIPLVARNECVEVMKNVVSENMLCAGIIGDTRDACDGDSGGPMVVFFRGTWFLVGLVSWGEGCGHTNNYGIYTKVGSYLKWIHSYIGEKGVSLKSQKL
Description: as §1

dog activated Protein C [4] = target: T4, dog activated Protein C (dog, UniProt Q28278 43-456); experiment: direct ELISA, antigen coated at 100 ng/well, Fab at 20 nM (1 ug/ml), anti-human Fab-HRP, AmplexRed (RFU)
T4 construct: mature; also called dog aPC; dAPC
T4 sequence (looked up): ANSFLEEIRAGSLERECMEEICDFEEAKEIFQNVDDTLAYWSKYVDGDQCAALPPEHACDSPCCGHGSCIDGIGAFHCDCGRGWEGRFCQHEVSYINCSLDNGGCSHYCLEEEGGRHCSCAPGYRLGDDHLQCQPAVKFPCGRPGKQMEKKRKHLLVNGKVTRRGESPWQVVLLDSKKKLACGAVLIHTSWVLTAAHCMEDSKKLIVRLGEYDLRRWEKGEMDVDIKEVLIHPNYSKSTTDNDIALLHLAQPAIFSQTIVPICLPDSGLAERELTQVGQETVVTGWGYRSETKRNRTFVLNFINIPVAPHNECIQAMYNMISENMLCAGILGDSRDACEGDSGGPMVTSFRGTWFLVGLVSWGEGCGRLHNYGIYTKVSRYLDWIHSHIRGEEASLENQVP
Description: (§2) FIG. 3 depicts a graph characterizing anti-APC Fabs by direct ELISA. An ELISA plate was coated with human PC (hPC), human aPC (hAPC), dog aPC (dAPC), mouse aPC (mAPC) at 100 ng per well. Purified Fabs designate on the X-axis were added to the plate at 20 nM (1 ug/ml). Bound Fab was detected by the secondary antibody (anti-human Fab-HRP) followed by HRP substrate AmplexRed. The purified Fabs preferentially bind to human aPC and, with the exception of Fab R41C17, show little to no binding to human PC.
(§3) Antigens were coated directly on ELISA plates. Coating antigens included human PC (plasma-derived), human aPC (recombinant), dog aPC (plasma-derived), and mouse aPC (recombinant) at 100 ng/well in PBS/Ca buffer. After blocking the plate with 5% milk/PBS and washing the plate with PBS-Tween20, soluble Fabs (1 ug/ml, 20 nM) were added to the plate and incubated for 1 h at RT with shaking. Fab binding was detected with anti-human Fab (lambda) antibody-HRP and Amplex red as substrate. […] In contrast, R41C17 binds to both human APC and human PC. Also shown in FIG. 3 is cross-species reactivity of Fabs by ELISA.

[5] = target: T1, human activated Protein C; experiment: direct ELISA, aPC coated, hIgG1
dog activated Protein C [6] = target: T4, dog activated Protein C; experiment: direct ELISA, antigen coated at 1 ug/ml, IgG at 20 nM, anti-human IgG-HRP, AmplexRed (RFU)
[7] = target: T5, human Protein C (zymogen) (human, UniProt P04070 43-461); experiment: direct ELISA, antigen coated at 100 ng/well, Fab at 20 nM (1 ug/ml), anti-human Fab-HRP, AmplexRed (RFU)
T5 construct: also called human PC; hPC
Description: as §2, §3

[8] = target: T5, human Protein C (zymogen); experiment: direct ELISA, antigen coated at 1 ug/ml, IgG at 20 nM, anti-human IgG-HRP, AmplexRed (RFU)
dog activated Protein C [9] = target: T4, dog activated Protein C; experiment: Biacore, Fab
dog activated Protein C [10] = target: T4, dog activated Protein C; experiment: direct ELISA, antigen coated, Fab

Binder | Kd [1] | EC50 [2] | binding result (dog Protein C (zymogen)) | binding result [3] | binding result (dog activated Protein C [4]) | EC50 [5] | binding result (dog activated Protein C [6]) | binding result [7] | further results
R41C17 Fab (Fab, V domains shown, Human Fab (lambda), expressed in E. coli; also called R4117) VH: EVQLLESGGGLVQPGGSLRLSCAASGFTFSNYAMSWVRQSPGKGLEWVAVISYDGREKYYSDSVKGRFTISRDNSKNTLYLQMNSLRAEDTAVYYCARDRGRTFDYWGQGTLVTVTS VL: LTQPPSASGTPGQRVTISCTGSSSNIGAGYVVHWYQQLPGTAPKLLIYRNNHRPSGVPDRFSGSKSGTSASLAISGLRSEDEADYYCAAWDDSLNGRVFGGGTKLTVLG | 4.8 nM | 8.6 nM | no binding (tested: 20 nM) | no binding (tested: 20 nM) | no binding (tested: 20 nM) | – | – | – | –
R41C17 hIgG1 (antibody, V domains shown) VH: EVQLLESGGGLVQPGGSLRLSCAASGFTFSNYAMSWVRQSPGKGLEWVAVISYDGREKYYSDSVKGRFTISRDNSKNTLYLQMNSLRAEDTAVYYCARDRGRTFDYWGQGTLVTVTS VL: LTQPPSASGTPGQRVTISCTGSSSNIGAGYVVHWYQQLPGTAPKLLIYRNNHRPSGVPDRFSGSKSGTSASLAISGLRSEDEADYYCAAWDDSLNGRVFGGGTKLTVLG | – | – | – | – | – | 0.55 nM | no binding (tested: 20 nM) | – | –
O3E7 hIgG1 (antibody, V domains shown, also called O3E7-IgG; 03E7) VH: EVQLLESGGGLVQPGGSLRLSCAASGFTFSSYSMNWVRQAPGKGLEWVSAISGSGGSTYYADSVKGRFTISRDNSKNTLYLQMNSLRAEDTAVYYCARDRRVRGIYDAFDMWGQGTLVTVTS VL: QSVLTQPPSTSGTPGQRVTISCTGSSSNIGAGFDVHWYQQLPGTAPKLLIYGNSNRPSGVPDRFSGSKSGTSASLAISGLRSEDEADYYCATWQDTLTGWMFGGGTKLTVLG | – | – | – | – | – | 16.9 nM | – | – | –
T46P19 Fab (Fab, V domains shown, Human Fab (lambda), expressed in E. coli) VH: EVQLLESGGGLVQPGGSLRLSCAASGFTFSGYGMHWVRQAPGKGLEWVSGINWNGGSTGYADSVKGRFTISRDNSKNTLYLQMNSLRAEDTAVYYCARNRATRSGYYYFDSWGQGTLVTVTS VL: LTQPPSASGTPGQRVTISCTGSSSNIGAGYDVHWYQQLPGTAPKLLIYGNINRPSGVPDRFSGSKSGTSASLAISGLRSEDEADYYCSSYTRSATLVFGGGTKLTVLG | 7.2 nM | 10.3 nM | no binding (tested: 20 nM) | no binding (tested: 20 nM) | no binding (tested: 20 nM) | – | – | no binding (tested: 20 nM) | –
T46P19 hIgG1 (antibody, V domains shown) VH: EVQLLESGGGLVQPGGSLRLSCAASGFTFSGYGMHWVRQAPGKGLEWVSGINWNGGSTGYADSVKGRFTISRDNSKNTLYLQMNSLRAEDTAVYYCARNRATRSGYYYFDSWGQGTLVTVTS VL: LTQPPSASGTPGQRVTISCTGSSSNIGAGYDVHWYQQLPGTAPKLLIYGNINRPSGVPDRFSGSKSGTSASLAISGLRSEDEADYYCSSYTRSATLVFGGGTKLTVLG | – | – | – | – | – | 0.37 nM | no binding (tested: 20 nM) | – | binding result [8]: no binding (tested: 20 nM)
C22J13 Fab (Fab, V domains shown, Human Fab (lambda) from a phage library, expressed in E. coli) VH: EVQLLESGGGLVQPGGSLRLSCAASGFTFSSNYMSWVRQAPGKGLEWVAVISYDGSNKYYADSVKGRFTISRDNSKNTLYLQMNSLRAEDTAMYYCALTGRSGWMRFPNWFDPWGQGTLVTVTS VL: QSVLTQPPSASGTPGQRVTISCSGSDSNIGSNAVNWYQQLPGTAPKLLIYDNNKRPSGVPDRFSGSKSGTSASLAISGLRSEDEADYYCSSYTSSNTVVFGGGTKLTVLG | 16 nM | 10.6 nM | – | no binding (tested: 20 nM) | – | – | – | no binding (tested: 20 nM) | –
C26B9 Fab (Fab, V domains shown, Human Fab (lambda) from a phage library, expressed in E. coli) VH: EVQLLESGGGLVQPGGSLRLSCAASGFTFSSYGMHWVRQAPGKGLEWVSVIYSGGSTYYADSVKGRFTISRDNSKNTLYLQMNSLRAEDTAVYYCARMGRAFDIWGQGTLVTVTS VL: QSVLTQPPSASGTPGQRVTISCSGSSSNIRSNTVNWYQQLPGTAPKLLIYGNSNRPSGVPDRFSGSKSGTSASLAISGLRSEDEADYYCQSYDSSLSGDVVFGGGTKLTVLG | 7.9 nM | 10.3 nM | no binding (tested: 20 nM) | no binding (tested: 20 nM) | no binding (tested: 20 nM) | – | – | no binding (tested: 20 nM) | –
C26B9 hIgG1 (antibody, V domains shown) VH: EVQLLESGGGLVQPGGSLRLSCAASGFTFSSYGMHWVRQAPGKGLEWVSVIYSGGSTYYADSVKGRFTISRDNSKNTLYLQMNSLRAEDTAVYYCARMGRAFDIWGQGTLVTVTS VL: QSVLTQPPSASGTPGQRVTISCSGSSSNIRSNTVNWYQQLPGTAPKLLIYGNSNRPSGVPDRFSGSKSGTSASLAISGLRSEDEADYYCQSYDSSLSGDVVFGGGTKLTVLG | – | – | – | – | – | 0.65 nM | no binding (tested: 20 nM) | – | binding result [8]: no binding (tested: 20 nM)
C7A23 Fab (Fab, V domains shown, Human Fab (lambda) from a phage library, expressed in E. coli) VH: EVQLLESGGGLVQPGGSLRLSCAASGFTFGNHWMTWVRQAPGKGLEWVSGVSWNGSRTHYADSVKGRFTISRDNSKNTLYLQMNSLRAEDTAVYYCALTGRSGWMRFPNWFDPWGQGTLVTVTS VL: QSVLTQPPSASGTPGQRVTISCSGSSSNIGNNYVSWYQQLPGTAPKLLIYRNNQRPSGVPDRFSGSKSGTSASLAISGLRSEDEADYYCQSYDSDLSGPYVLFGGGTKLTVLG | – | – | no binding (tested: 20 nM) | no binding (tested: 20 nM) | – | – | – | – | Kd (dog activated Protein C [9]): 1.3 nM; EC50 (dog activated Protein C [10]): 6 nM
